Molecular target: Fc-tagged CD147 (UniProt P35613)
UniProt P35613, sequence (P35613 138-325): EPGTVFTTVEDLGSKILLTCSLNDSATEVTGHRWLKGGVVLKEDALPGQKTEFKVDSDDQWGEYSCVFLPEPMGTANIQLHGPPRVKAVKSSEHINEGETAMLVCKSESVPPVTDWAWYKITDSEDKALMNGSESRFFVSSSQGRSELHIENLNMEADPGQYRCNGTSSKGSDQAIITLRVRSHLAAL

Substance: recombinant human cyclophilin B (from UniProt P23284 34-216) (natural protein)
- SARS-CoV-2 uptake by human monocytes (N protein RNA by RT-qPCR, 24 hpi) after pretreatment with recombinant human CypA and CypB together (each 10 µg/ml) as a decoy; CD147 endogenous on the monocytes (fold decrease): 2.7
